Results from patent publication US20150285801.

Tested on: GST-topo I
Sequence (chain, as listed by the source): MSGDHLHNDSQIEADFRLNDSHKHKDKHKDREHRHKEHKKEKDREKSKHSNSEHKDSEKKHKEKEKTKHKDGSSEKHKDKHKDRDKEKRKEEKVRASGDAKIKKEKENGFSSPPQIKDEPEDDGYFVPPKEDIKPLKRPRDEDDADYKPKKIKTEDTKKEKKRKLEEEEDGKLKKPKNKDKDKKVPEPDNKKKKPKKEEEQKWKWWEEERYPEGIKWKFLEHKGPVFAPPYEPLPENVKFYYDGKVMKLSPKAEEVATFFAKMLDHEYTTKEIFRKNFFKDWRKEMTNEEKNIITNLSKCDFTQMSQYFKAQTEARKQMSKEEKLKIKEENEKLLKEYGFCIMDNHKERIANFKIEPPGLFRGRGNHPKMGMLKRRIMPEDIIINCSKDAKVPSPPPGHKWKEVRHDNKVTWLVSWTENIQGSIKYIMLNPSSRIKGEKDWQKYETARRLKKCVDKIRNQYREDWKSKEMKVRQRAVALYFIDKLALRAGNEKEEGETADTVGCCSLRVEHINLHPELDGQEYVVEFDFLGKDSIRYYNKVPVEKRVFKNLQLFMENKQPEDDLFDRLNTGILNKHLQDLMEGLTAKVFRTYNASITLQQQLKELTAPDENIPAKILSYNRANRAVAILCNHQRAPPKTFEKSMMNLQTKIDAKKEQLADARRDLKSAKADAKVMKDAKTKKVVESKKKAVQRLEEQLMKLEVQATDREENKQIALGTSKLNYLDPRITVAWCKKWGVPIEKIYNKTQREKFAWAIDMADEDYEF

## BRCA1/BARD1 (E3)
  in vitro ubiquitination, immunoblot with anti-ubiquitin: topo I is ubiquitinated by BRCA1
